Results on 15 molecules are retold here after patent publication US20240218054A1 (MABLOC, published 2024).

A word on the Kd: it is the equilibrium constant for the complex coming apart.

B1: ADI-42210 (antibody, V domains shown)
VH: EVQLLESGPGLVQPSGTLSLTCTASGGSISSSNWWSWVRQPPGKGLEWIGDIYHTGSTSYNPSLKSRVTISVDKSKNQFSLKLSSVTAADTAVYYCARAELSAWYYFDHWGQGTLVTVSS
VL: QSVLTQPPSVSAAPGQKVTISCSGSSSNIGNNYVSWYQQLPGTAPKLLIYDNNKRPSGIPDRFSGSKSGTSATLGITGLQTGDEADYYCGTWDTSLSAGRVFGGGTKLTVL
notes: full-length IgG; also called Antibody Number 16
B2: ADI-42198 (antibody, V domains shown)
VH: EVQLVESGPGLVKPSGTLSLTCAVSGGSISSNKWWSWVRQPPGKGLEWIGEIYHSGSTSYNPSLKSRVSISVDKSKNQFSLKLSSVTAADTAVYYCARVEWAYSSSWWLDYWGQGTLVTVSS
VL: QSVLTQPPSVSAAPGQKVTISCSGSSSNIGNNYVSWYQQLPGTAPKLLIYDNNKRPSGIPDRFSGSKSGTSATLGITGLQTGDEADYICGTWDTSLSAGGVFGGGTKLTVL
notes: full-length IgG; also called Antibody Number 21
B3: ADI-49154 (antibody, V domains shown)
VH: QVQLQESGPGLVKPSGTLSLTCAVSGSSITSSHWWSWVRQPPGKGLAWIGDIYHSGGTTYNPSLKSRVTISVDKSKNQFSLKLSSVTAADTAVYYCARVSVSTSAWYADYWGQGTLVTVSS
VL: QSVLTQPPSVSAAPGQKVTISCSGSSSNIGNNYVSWYQQLPGTAPKLLIYDNNKRPSGIPDRFSGSKSGTSATLGITGLQTGDEANYYCGTWDTSLSTVFGGGTKLTVL
notes: full-length IgG; also called Antibody Number 23
B4: ADI-42190 (antibody, V domains shown)
VH: QVQLVESGGGLVKPGGSLRLSCAASGFTFSDDYMSWIRQAPGKGLEWVSYISGSGRAMYYADSVQGRFTVSRDNAKNSLFLQMNNLRAEDTAVYYCAKHTGDKPLVWAPSVYGLDVWGQGTTVTVSS
VL: QSVLTQPASVSGSPGQSITISCTGTSSDIGAYNYVSWYQQHPGKAPKLMIYDVTNRPSGVSNRFSGSKSGSSASLTISGLQTEDEADYYCSSYTRRSTLVFGGGTKLTVL
notes: full-length IgG; also called Antibody Number 22
B5: ADI-42144 (antibody, V domains shown)
VH: QVQLVESGGGVVQPGRSLRLSCAASGFTFSSYTMHWVRQAPGKGLEWVAVISYDGSNKYYADSVKGRFTISRDNSKNTLYLQMNSLRAEDTAVYYCARGGDYGDYESNNPAEYFQHWGQGTLVTVSS
VL: QSVLTQPPSVSGAPGQRVTISCTGSSSNIGAGYDVHWYQQLPGTAPKLLIYGNSNRPSGVPDRFSGSKSGTSASLAITGLQAEDEADYYCQSYDSSLSGHVVFGGGTKLTVL
notes: full-length IgG; also called Antibody Number 26
B6: ADI-42201 (antibody, V domains shown)
VH: EVQLVESGGGVVQPGRSLRLSCVASGFTLRSYGMHWVRQVPGKGLEWVAVSWYDGSNKHYADSVKGRFSISRDNSKNTLYLQMNSLRAEDTAVYYCARAQDGQQLVNYYGMDVWGQGTTVTVSS
VL: DIQMTQSPSSLSASVGDRVTITCRASQSISSYLNWYQQKPGEAPNLLIFAASILQSGVPSRFSGSGSGTDFTLTISSLQPEDFATYYCQQSYSTPYTFGQGTKVEIK
notes: full-length IgG; also called Antibody Number 25
B7: ADI-50219 (antibody, V domains shown)
VH: QVQLQESGPGLVKPSETLSLTCTVSGDSISVSYWSWIRQFPGKGLEWIGYIYNSGNANYNPSLESRVTISIDTSKNRFSLRLSSVTAADTAVYYCAGHREDPYGAYGASWGQGTLVTVSS
VL: EIVLTQSPATLSSSPGERATLSCRASQSVNSYLVWYQQKPGQAPRLLIYDASNRATGIPARFTGSGSGTDFTLTISSLEPEDFAVYYCQQRTNWPFTFGQGTKVDIK
notes: full-length IgG; also called Antibody Number 27
B8: ADI-48897 (antibody, V domains shown)
VH: EVQLLESGPGLVKPSETLSLTCTVSGGSLSSDSHFWGWIRQPPGKGLEWIGYIYYSGNANYNPSLQSRVTISLDKSKNQFSLRLTSVTAADTAVYYCASRKEVRGTEDYFDYWGQGTLVTVSS
VL: EIVLTQSPATLSLSPGERATLSCRASQSVNRYLAWYQQKPGQAPRLLIYDASNRATGIPARFSGSGSGTDFTLTISSLEPEDFAVYYCHQRTNWPWTFGQGTKVEIK
notes: full-length IgG; also called Antibody Number 28
B9: ADI-48895 (antibody, V domains shown)
VH: EVQLLESGGGLVKPGGSLRLSCAASGFTFSDYYMSWIRQAPGKGLEWVSYITSSGNTKYYADSVKGRFTISRDNAKNSLYLQISSLRAEDTAVYYCARDWAELTTITNYFYPWGQGTTVTVSS
VL: DIQLTQSPSSVSASVGDRVTITCRASQGISSWLAWYQQKPGKAPKLLIHAASSLQSGVPSRFSGSGSGTDFTLTISSLQPEDFATYYCQQAKSFPPTFGQGTRLEIK
notes: full-length IgG; also called Antibody Number 18
B10: ADI-42194 (antibody, V domains shown)
VH: EVQLQESGPGLVKPSETLSLTCTVSGGSVSSGSYYWSWIRQPPGKGLEWIGYIYDSGNTNYNPSLKSRVTISVDTSKRQFSLRLTSVTAADTAVYYCAKVEEDGYTNVVRDYWGQGTLVTVSS
VL: EIVMTQSPATLSLSPGERATLSCRASQSVSNYLAWYQQKPGQAPRLLISDASSRATGIPARFRGSGSGTDFTLTISSLEPEDFAVYYCLQRTNWPFTFGPGTKVEIK
notes: full-length IgG; also called Antibody Number 29
B11: ADI-50201 (antibody, V domains shown)
VH: QVQLVESGGGLVKPGGSLRLSCAASGFIFSDYYMNWIRQAPGKGLDWVSTISGSGKSIYYADSVKGRFTISRDNAKNSLYLQMNSLSAEDTAVYYCARVSPLDDGYGYTYYGMDVWGQGTTVTVSS
VL: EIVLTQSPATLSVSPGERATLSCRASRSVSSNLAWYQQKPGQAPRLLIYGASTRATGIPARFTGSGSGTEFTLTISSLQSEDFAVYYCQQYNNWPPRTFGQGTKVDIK
notes: full-length IgG; also called Antibody Number 17
B12: ADI-42228 (antibody, V domains shown)
VH: EVQLLESGGGLVQPGRSLRLSCAASGFTFDDYAMHWVRQPPGKGLEWVSGISWNGGGIGYADSVKGRFTISRDNAKNSLYLQMNSLRADDTALYYCAKAENRIGYCSAGSCYLTYFDYWGQGTLVTVSS
VL: QPVLTQPASVSGSPGQSITISCTGTSSDVGGYNYVSWYQQHPGKAPKLLIYDVSNRPSGVSNRFSGSKSANSASLTISGLQAEDEADYYCNSYTSSSTLVFGGGTKLTVL
notes: full-length IgG; also called Antibody Number 19
B13: ADI-49189 (antibody, V domains shown)
VH: EVQLVESGGGLVKPGGSLRLSCAASGFTFSDYYMSWIRQAPGKGLECIACISSSGSMIYYADSVKGRFTISRDNAKNSLYLQLNSLRVEDTAVYYCAREGTRGRMDWGQGTLVTVSS
VL: QSVLTQPASVSGSPGQSITISCTGTSSDIGGYNYVSWYQQHPGKVPKLVIYDVSNRPSGVSNRFSGSKSGNTASLTISGLQAEDEADYYCSSYTSGTTLGVFGTGTKLTVL
notes: full-length IgG; also called Antibody Number 30
B14: ADI-49183 (antibody, V domains shown)
VH: QVQLVESGGGLVKPGGSLRLSCVASGFTFNNYYMRWMRQAPGKGLEWVSQISSSGSIKDYADSVKGRFTVSRDNAKNSLYLQLNSLRADDTAVYFCARELSSRIDYWGQGTLVTVSS
VL: QSALTQPASVSGSPGQSITISCTGTGSDVGGYNFVSWYQQHPGKAPKLMLYDVNNRPSGVSNRFSGSKSGNTASLTISGLQAEDEADYYCSSYPGTSALVIFGGGTRLTVL
notes: full-length IgG; also called Antibody Number 24
B15: ADI-49188 (antibody, V domains shown)
VH: EVQLLESGPGLVRPSGTLSLTCAVSGGSISTTDWWSWVRQPPGKGLEWIGEINQSGSTSYSPSFKSRVSISVDKSKRQFSLKLTSVTAADTAVYYCARDSWSGPTRNWFDPWGRGTLVTVSS
VL: QSVVTQPPSVSAAPGQKVTISCSGRSSNIGNSDVSWYQQFPGRAPKLLIYDNDERPSGIPDRFSGSKSGTSATLDITGLQTGDEADYYCGTWDSSLGGVIFGGGTKVTVL
notes: full-length IgG; also called Antibody Number 31

T1 sequence (Q6DV88 286-678): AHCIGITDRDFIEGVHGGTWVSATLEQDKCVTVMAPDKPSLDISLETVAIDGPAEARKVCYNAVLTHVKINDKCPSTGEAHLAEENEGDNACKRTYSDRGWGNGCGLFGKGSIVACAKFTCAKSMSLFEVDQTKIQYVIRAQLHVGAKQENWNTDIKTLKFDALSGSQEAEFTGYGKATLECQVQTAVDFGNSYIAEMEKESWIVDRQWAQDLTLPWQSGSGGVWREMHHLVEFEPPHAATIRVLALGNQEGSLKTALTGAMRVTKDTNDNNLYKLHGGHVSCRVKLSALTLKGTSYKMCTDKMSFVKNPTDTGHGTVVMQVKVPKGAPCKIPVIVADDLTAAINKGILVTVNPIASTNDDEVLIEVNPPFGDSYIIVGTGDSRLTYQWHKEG

The assay has as its target T1, recombinant YFV E protein (soluble E, sE; YFV Asibi strain) (Yellow fever virus, Asibi strain, UniProt Q6DV88 286-678).
T1 construct: also called YFV E antigen; YFV E monomer
Description: BLI monovalent (IgG on tip).
On to B1, for which the Kd turned out to be 18.7 nM.
With B2, the Kd was 33.2 nM.
B3: the Kd came to 141 nM.
Then B4, with 13.1 nM; and B5, with 10.9 nM.
As for B6, the figure is 113 nM.
On to B7, for which the dissociation constant Kd came out at 0.859 nM.
Then B8, with 3.22 nM.
For B9, the Kd was 4.49 nM.
As for B10, the figure is 5.44 nM.
Then B11, with 13.1 nM; and B12, with 8.64 nM; and B13, with 12.7 nM.
As for B14, the figure is 2.21 nM; as for B15, 9.54 nM.
